We go through 1 protein from publication PMC6288613, “Mouse REC114 is essential for meiotic DNA double-strand break formation and forms a complex with MEI4” (Life Science Alliance, 2018).

As a reminder, the stoichiometry N is the number of molecules, sites or subunits per partner or assembly.

The series deals with the molecule itself. In words: SEC-MALS; SEC-MALLS, Superdex 75; 50 ul of purified protein injected at 10, 5 and 2 mg/ml; dimer to monomers, fast exchange. (Size exclusion chromatography separates by hydrodynamic size, large species first.)

B1: Mouse REC114 (15-159) (domain or fragment, UniProt Q9CWH4 15-159, looked up)
chain: GEVSQWSLKRYGRFMLLDNVGSPGPSSEAAAAGSPTWKVFESSEESGSLVLTIVVSGHFFISQGQTLLEGFSLIGSKNWLKIVRRMDCLLFGTTIKNKSRMFRVQFSGESKEEALERCCGCVQTLAQYVTVQEPDSTTQELQQSQ
notes: REC114, mouse, residues 15-159 (PH domain), expressed from pProEXHTb; final crystallographic model includes residues 15-150; A selenomethionine-substituted form was also crystallised for phasing; also called REC114 PH domain; REC114 N-terminal region; source: E. coli BL21-Gold (DE3), purified (Ni2+ resin, TEV cleavage, second Ni2+ column, size-exclusion chromatography)
Take B1: the “stoichiometry N” value was 2.
